Measurements published in patent US9844563B2, “Compositions, kits, and methods to induce acquired cytoresistance using stress protein inducers” (FRED HUTCHINSON CANCER RESEARCH CENTER, priority 2014, dated 2017).
Where “and” joins values, the source holds several entries; their conditions need not be identical. Equal values may be shown once.

Tests used:
HO-1 mRNA = experiment: Renal cortical HO-1 mRNA (RT-PCR) after IV myoglobin, SnPP or both; assay type: in vivo, mice
Description: (§1) The Glycerol Model of AKI. This is a widely used model of rhabdomyolysis-induced AKI that has been employed worldwide for 50 years. The model was used to test whether prophylactic interventions confer protection against AKI. Basically, the protocol is as follows: Male CD-1 mice (35-45 grams), obtained from Charles River Laboratories, Wilmington, Mass. were studied. Mice were maintained under standard vivarium conditions and generally housed for 1-3 weeks prior to study. The mice were placed in a cylindrical restraining cage, and then were given a tail vein injection of the test substances (see below) or test substance vehicle. The mice were then returned to their cages. Eighteen hours (hrs) later, the mice were briefly anesthetized by isoflurane inhalation, and given an intramuscular injection of hypertonic (50%) glycerol in a dose of 9 ml/Kg body weight. The dose is divided in two, with half injected into the muscle of each of the hind limbs. The mice were then returned to their cages. Eighteen hrs later, the mice were deeply anesthetized with pentobarbital (50-100 mg/Kg), the abdominal cavity was opened through a midline abdominal incision, a blood sample was obtained from the abdominal vena cava and the kidneys were resected. A kidney cross section was obtained and fixed in formalin for subsequent histologic analysis. The terminal blood samples were analyzed for BUN and creatinine, using commercially available assay kits. The remaining kidney tissue was subjected to cortical dissection, and the cortical tissues were then extracted for protein and RNA. The protein samples were saved for analysis of HO-1 levels, and the RNA samples were subjected to RT-PCR to quantify HO-1 mRNA as well as levels of other stress gene mRNAs (e.g. NGAL, haptoglobin, hemopexin, hepicidin).
(§2) Myoglobin+SnPP: To 5 mg of dry myoglobin was added 0.9 ml of PBS+0.1 ml of a stock SnPP solution (50 umole/ml). The resulting final concentrations were 5 mg/ml myoglobin+5 umoles/ml of SnPP. The tail vein was injected with 200 ul of this solution, which equals 1 mg myoglobin+1 umole SnPP. […]
(§3) Four hr post myoglobin vs myoglobin+SnPP vs SnPP alone experiments. To confirm that the myoglobin+SnPP has a synergistic effect in inducing HO-1 mRNA and HO-1 protein levels, each of the above combinations have been administered alone via tail vein injection. Four hrs later, the mice were sacrificed as noted above and the kidneys were harvested for assessment of HO-1 mRNA and protein levels. For additional information regarding methods, see Zager et al., Am J Physiol Renal Physiol. 2014 Jul. 30. Pii.

Haptoglobin = Haptoglobin protein expression after SQ myoglobin with or without PEG; assay type: in vivo, mice; conditions: 4 hour time point after SQ injection
Method: Myoglobin+PEG: To a stock solution of 20 mg/ml Mgb in PBS was added 100 mg/ml of PEG-6000; […]. This was administered as a subcutaneous injection in the dorsal neck (250 ul total injection). For combined Mgb/PEG+SnPP, SnPP was added to the above in a concentration of 3 mg/ml.

[1] = design: species or system mice; conditions: mouse, in vivo, iv
HO-1 = experiment: Renal cortical HO-1 protein (ELISA) after IV myoglobin, SnPP or both; assay type: in vivo, mice; conditions: 1 mg Myoglobin, 1 μmole SnPP
Description: as §1, §2
as §3, with “Four hrs later, the mice were sacrificed as noted above and the kidneys were harvested for assessment of HO-1 mRNA and protein levels.” left out

HK-2 cells = experiment: HK-2 cell injury by MTT assay; assay type: cell-based; conditions: 10 mg/mL, 18 hr incubation, compared to control incubated cells
Method: HK-2 cells (a proximal tubule cell line derived from normal human kidney) were incubated in keratinocyte serum free medium either under normal (control) conditions or in the presence of 10 mg/mL horse skeletal muscle myoglobin or nitrited myoglobin (produced by equimolar Na nitrite addition to 10 mg/ml myoglobin). After 18 hr incubations, the severity of cell injury (% cell death) was assessed by MTT assay. Myoglobin induced 40% cell death (40% decrease in MTT cell uptake), compared to control incubated cells. Nitrite binding to myoglobin reduced cell death by 75%. Thus, nitrite binding is able to reduce myoglobin's cytotoxic effects.

B1: myoglobin (protein, listed as Homo Sapiens)
chain: MGLSDGEWQLVLNVWGKVEADIPGHGQEVLIRLFKGHPETLEKFDKFKHLKSEDEMKASEDLKKHGATVLTALGGILKKKGHHEAEIKPLAQSHATKHKIPVKYLEFISECIIQVLQSKHPGDFGADAQGAMNKALELFRKDMASNYKELGFQG
notes: Lyophilized horse skeletal muscle myoglobin (Sigma Chemicals) used as the test agent
With B1 the “HO-1 mRNA induction (HO-1/GAPDH mRNA), Average” value (HO-1 mRNA; 4 hrs post IV injection, average) was 3.93 HO-1/GAPDH mRNA, the “HO-1 mRNA induction (HO-1/GAPDH mRNA), individual mice” value (HO-1 mRNA; 4 hrs post IV injection, single animals) was 7.78 HO-1/GAPDH mRNA and 2.93 HO-1/GAPDH mRNA and 2.58 HO-1/GAPDH mRNA and 2.41 HO-1/GAPDH mRNA and the “HO-1 mRNA induction overnight post injection, Average” value (HO-1 mRNA; Ovnt (roughly 18 hrs) IV, 1 mg Myoglobin, 1 μmole SnPP, average) was 0.58 HO-1/GAPDH mRNA. For the same molecule, the “HO-1 mRNA induction overnight post injection, individual subjects” value (HO-1 mRNA; Ovnt (roughly 18 hrs) IV, 1 mg Myoglobin, 1 μmole SnPP, single animals) was 0.71 HO-1/GAPDH mRNA and 0.53 HO-1/GAPDH mRNA and 0.51 HO-1/GAPDH mRNA, the “Haptoglobin Protein Expression” value (Haptoglobin) was 32.7 ± 6.3 ng/mg protein and the “Plasma LDH, Average” value [1] was 4.47 Absorbance U LDH/ml. The “HO-1 Protein Expression (by ELISA), Average” value (HO-1; Cortex, 4 hr IV, average) was 45.4 ng HO-1/mg protein, the “HO-1 Protein Expression (by ELISA), individual mice” value (HO-1; Cortex, 4 hr IV, single animals) was 36.0 ng HO-1/mg protein and 40.7 ng HO-1/mg protein and 40.2 ng HO-1/mg protein and 64.7 ng HO-1/mg protein and the “HO-1 protein induction overnight post injection, Average” value (HO-1; Ovnt (roughly 18 hrs) IV, average, in ng/mg protein) was 36.7. For the same molecule, the “HO-1 protein induction overnight post injection, individual subjects” value (HO-1; Ovnt (roughly 18 hrs) IV, single animals, in ng/mg protein) was 50.6 and 34.9 and 24.6 and the “cell death (decrease in MTT cell uptake)” value (HK-2 cells) was 40%.
